The conditions of the data set: Canis lupus familiaris, Thermal, DSC, reversible: yes, whole UniProt chain shown.
[1] abbreviates: pH 1.95, glycine hydrochloride 50 mM, transition: 3.
Setting [2] is: pH 4.5, 66.4 °C, sodium acetate 50 mM.

The values that follow come from FireProtDB (doi:10.1093/protein/14.12.967).

Values joined by “and” are separate entries in the source; they are usually repeats but may differ in a detail not shown here. Equal values may be shown once.

B1: Lysozyme C, milk isozyme wild type, P81708 (protein)
chain: KIFSKCELARKLKSMGMDGFHGYSLANWVCMAEYESNFNTQAFNGRNSNGSSDYGIFQLNSKWWCKSNSHSSANACNIMCSKFLDDNIDDDIACAKRVVKDPNGMSAWVAWVKHCKGKDLSKYLASCNL
As for B1, the midpoint of thermal melting (Tm) under setting [1] is 60 °C. The “unfolding enthalpy (calorimetric)” value under setting [1] was found to be 29.6 kcal/mol; the “unfolding enthalpy (calorimetric)” value (pH 2.74, glycine hydrochloride 50 mM, transition: 3) was 21.3 kcal/mol and 37.8 kcal/mol; the “unfolding enthalpy (calorimetric)” value (pH 3, glycine hydrochloride 50 mM, transition: 3) is 31.8 kcal/mol and 36.9 kcal/mol; the “unfolding enthalpy (calorimetric)” value (pH 3.24, glycine hydrochloride 50 mM, transition: 3) is 35.6 kcal/mol and 43 kcal/mol; the “unfolding enthalpy (calorimetric)” value (pH 3.46, glycine hydrochloride 50 mM, transition: 3) is 37.7 kcal/mol and 42 kcal/mol; the “unfolding enthalpy (calorimetric)” value under setting [2] was found to be 30.9 kcal/mol. Also, the “unfolding enthalpy (calorimetric)” value is, setting by setting: (pH 4.5, sodium acetate 50 mM, CaCl2 10 mM, transition: 3) 67.4 kcal/mol and 44.4 kcal/mol; (pH 4.5, sodium acetate 50 mM, transition: 3) 42.1 kcal/mol and 44.4 kcal/mol. Also, under setting [2], the unfolding free energy is 2.15 kcal/mol.
